From patent US11118167B2, “Enzyme-mediated depletion of adenosine and/or methylthioadenosine” (BOARD OF REGENTS, THE UNIVERSITY OF TEXAS SYSTEM, priority 2017, dated 2021)

B1: hs-MTAP: MTAP enzyme from Homo sapiens (SEQ ID NO: 1), N-terminal His6 tag, expressed in E. coli (protein, listed as Homo sapiens)
chain: MASGTTTTAVKIGIIGGTGLDDPEILEGRTEKYVDTPFGKPSDALILGKIKNVDCVLLARHGRQHTIMPSKVNYQANIWALKEEGCTHVIVTTACGSLREEIQPGDIVIIDQFIDRTTMRPQSFYDGSHSCARGVCHIPMAEPFCPKTREVLIETAKKLGLRCHSKGTMVTIEGPRFSSRAESFMFRTWGADVINMTTVPEVVLAKEAGICYASIAMATDYDCWKEHEEAVSVDRVLKTLKENANKAKSLLLTTIPQIGSTEWSETLHNLKNMAQFSVLLPRH
modifications: N-terminal His6 tag
B2: se-MTAN: MTAN enzyme from Salmonella enterica (SEQ ID NO: 3), N-terminal His6 tag, expressed in E. coli (protein, listed as Salmonella enterica)
chain: MKIGIIGAMEEEVTLLRDKIDNRQTITLGGCEIYTGQLNGTEVALLKSGIGKVAAALGATLLLEHCKPDVIINTGSAGGLASTLKVGDIVVSDETRYHDADVTAFGYEYGQLPGCPAGFKADDKLIAAAESCIRELNLNAVRGLIVSGDAFINGSVGLAKIRHNFPDAVAVEMEATAIAHVCHNFNVPFVVVRAISDVADQQSHLSFDEFLAVAAKQSTLMVETLVQKLAHG
modifications: N-terminal His6 tag
B3: PEG-hs-MTAP: hs-MTAP with surface lysine residues reacted with Methoxyl PEG Succinimidyl Carbonate 5000 MW (conjugate, UniProt Q13126 1-283, looked up)
S-methyl-5'-thioadenosine …: B1 chain
modifications: PEG 5000
notes: hs-MTAP with surface lysine residues reacted with Methoxyl PEG Succinimidyl Carbonate 5000 MW

How the values were obtained:
murine T cells = experiment: Restoring proliferation of murine T cells treated with MTA (CellTrace Violet, FACS); type: cell-based, mouse; settings: 5 μM enzyme, CD8+ and CD4+ T cells
Source text: Spleens dissected from healthy 8-week-old C57BL6 mice were crushed in a 70 μm Falcon™ Cell Strainer to obtain single cells, which were further isolated using the EasySep™ Mouse T-Cell Isolation Kit (Stem Cell). Isolated T cells were brought to a concentration of 1×10^6 cells/mL in PBS and were processed according to the CellTrace™ Violet Cell Proliferation Kit protocol (Thermo Fisher), which measures proliferation as a function of dye dilution with each cell-division. The labeled cells were then re-counted and brought to 1×10^6 cells/mL of RPMI media and 1 mL/well were plated, after which anti-CD3/CD28 beads were added to activate the T cells (Dynabeads® Mouse T-Activator CD3/CD28 for T-Cell Expansion and Activation from Thermo Fisher) according to the protocol from the kit. Subsequently, three different MTA concentrations, 0 μM MTA, 125 μM MTA, or 250 μM MTA were added to the plated cells. Finally, MTAP and MTAN were added to the appropriate wells at a final concentration of 5 μM enzyme, and PBS was added to the control wells. After incubation for five days, cells were then collected and stained with anti-CD3, anti-CD4, anti-CD8, and Fixable Viability Dye eFluor™ 520 and analyzed by FACS. The antibodies used were all from Biolegend: PE anti-mouse CD3 (17A2), APC anti-mouse CD4 (GK1.5), APC/Fire™ 750 anti-mouse CD8a (53-6.7), and Brilliant Violet 421™ anti-mouse Ki-67 (16A8). […]

[1] = Kinetic stability of purified enzymes in phosphate buffer; type: physicochemical
Method: The kinetic stabilities of purified hs-MTAP and se-MTAN enzymes were determined by incubating the enzymes in a 100 mM phosphate buffer (pH 7.4) at 37° C. Over the course of four days, aliquots of hs-MTAP and se-MTAN were withdrawn from the incubations and assessed for their ability to degrade MTA as described in Example 5. The resulting data were processed and fitted to an exponential equation to determine the decay rate.

B16-F10 MTAP−/− tumor = experiment: Immune phenotype in the B16-MTAP−/− melanoma tumor model (FACS); type: in vivo, mouse; settings: two doses, 24 hr post dose, vs vehicle
Method: Lymphocyte panels observed by FACS analyses from C57/BL6 mice bearing B16-F10 MTAP^−/− tumor samples were assessed after treatment with two doses of PEG-MTAP or vehicle (analyzed 24 hr post dose).

[2] = system: B16-F10 MTAP−/− allografts; experiment: Efficacy in the B16-MTAP−/− melanoma tumor model; type: in vivo, mouse; settings: 50 mg/kg three times/week peri-tumoral, 2 weeks
Source text: As B16 is a very well characterized cell line in terms of metabolism and its interaction with host immune systems, it was hypothesized that an MTAP deletion in this strain would create a relevant model to evaluate the consequences of MTA accumulation both metabolically to the tumor and upon the host immune system. Cas9 protein (TrueCut™ Cas9 Protein v2) and synthetic single guide RNA purchased through ThermoFisher were transfected into B16-F10 WT cells using lypofectamine (Lipofectamine™ CRISPRMAX™ Cas9 Transfection Reagent). After two days of transfection, cells were plated using limited dilution method into ten 96-well plates. Plates were examined daily for single cell clones and after reaching confluency (10-14 days post transfection) clones were further expanded and analyzed for MTAP expression through Western blotting, and clones lacking MTAP expression were verified for gene disruption by cloning and sequencing.
(§1) Two cohorts each of C57/BL6 mice were subcutaneously inoculated with either 50,000 WT B16-F10 or B16-F10 MTAP^−/− cells. When the tumors reached a mean size of 55 mm^3 the mice were treated with either vehicle (PBS) or 50 mg/kg of PEG-MTAP three times/week by peri-tumoral injection for 2 weeks. As expected from a tumor highly expressing MTAP, it was observed that PEG-MTAP treatment had no effect on the growth of WT B16-F10 tumors (FIG. 8A).

WT B16-F10 tumors = experiment: Efficacy in the B16 WT melanoma tumor model; type: in vivo, mouse; settings: C57/BL6 mice, 50 mg/kg three times/week peri-tumoral, 2 weeks
Method: as §1

Molecule	reversal of the MTA effect on T cell proliferation and viability (murine T cells)	half-life (T1/2) of activity ([1]; pH 7.4) [h]	half-life (T1/2) of activity ([1]; 100 mM phosphate buffer, pH 7.4, 37° C.) [h]	percentage of CD4+ T cells (B16-F10 MTAP−/− tumor)	percentage of NK1.1+ natural killer cells (B16-F10 MTAP−/− tumor)	percentage of proliferating CD8+ Granzyme B+ T cells (B16-F10 MTAP−/− tumor)	complete responses (CRs) in the treatment group ([2]; 3/7 CRs) [%]	tumor growth ([2]; C57/BL6 mice)	tumor growth (WT B16-F10 tumors)
B1	completely reversed	57	–	–	–	–	–	–	–
B2	completely reversed	–	56	–	–	–	–	–	–
B3	–	–	–	large increases	large increases	large increases	43	drastically retarded tumor growth	no effect
